The values that follow come from US20230416411A1 (Hoffmann-La Roche, published 2023).

Changes are numbered by the printed parent chain.

In test [1] the target is T1, EGFRvIII expressed on the cell surface (CHO-EGFRvIII, DK-MG, U87MG-EGFRvIII cells) (human, UniProt P00533 298-1210).
T1 construct: also called EGFRvIII on cells
The test is described as follows: flow cytometry on U87MG-EGFRvIII cells, labelled anti-human Fc secondary antibody. The protocol: (§1) Cells used for binding experiments were harvested, washed with PBS and resuspended in FACS buffer. The antibody staining was performed in a 96-well round bottom plate. Cells were harvested, counted and 100 000 to 200 000 cells were seeded per well. The plate was centrifuged for 4 min at 400×g and the supernatant was removed. The test antibodies were diluted in FACS buffer and 20 μl of the antibody solution were added to the cells for 30 min at 4° C. To remove unbound antibody the cells were washed twice with FACS buffer before addition of the diluted secondary antibody PE-conjugated AffiniPure F(ab′)2 Fragment goat anti-human IgG Fcg Fragment Specific (Jackson ImmunoResearch, #109-116-170 or #109-116-098). After 30 min incubation on 4° C. unbound secondary antibody was washed away. Before measurement the cells were resuspended in 200 μl FACS buffer and analyzed by flow cytometry using BD Canto II or BD FACS Fortessa.

Test [2] addresses T1, EGFRvIII expressed on the cell surface …. The test is described as follows: flow cytometry on U87MG-EGFRvIII cells, IgG PGLALA. How it is done:
as §1

Test [3] concerns the target TYRP1 on the primary melanoma cell line M150543 (human, UniProt P17643 25-537). The test is described as follows: cell-based or functional assay.

B1: EGFRvIII antibody P063.056, human IgG1 PGLALA (antibody, V domains shown)
VH: EVQLVQSGAEVKKPGESLKISCKGSGYSFDSYWIAWVRQMPGKGLEWMGVIHPYDSDTRYSPSFQGQVTISADKSISTAYLQWSSLKASDTAMYYCARVSRSSYAFDYWGQGTLVTVSS
VL: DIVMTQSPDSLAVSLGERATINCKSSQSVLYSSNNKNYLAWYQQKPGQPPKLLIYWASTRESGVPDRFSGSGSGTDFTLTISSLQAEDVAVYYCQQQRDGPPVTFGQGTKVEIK
notes: Anti-EGFRvIII PGLALA IgG
Take B1: the EC50 (read off the curve) (commonly the concentration needed to bring the measured effect to its halfway point) is about 4 nM in test [1] and about 5 nM in test [2].

B2: EGFRvIII TCB P056.021 (CD3orig) (bispecific antibody, V domains shown)
VH 1: B1 VH
VL 1: not shown
VH 2: not shown
VL 2: QAVVTQEPSLTVSPGGTVTLTCGSSTGAVTTSNYANWVQEKPGQAFRGLIGGTNKRAPGTPARFSGSLLGGKAALTLSGAQPEDEAEYYCALWYSNLWVFGGGTKLTVL
notes: also called parental EGFRvIII TCB P056.021; P056.021 EGFRvIII TCB with CD3orig
Consider B2, for which, in test [1], the “EC50 (read off the curve)” value was about 5 nM.

B3: TYRP1 TCB CD3opt (bispecific antibody, human IgG1, kappa, L234A L235A)
heavy 1: not shown
heavy 2: QVQLVQSGAEVKKPGASVKVSCKASGFNIKDYFLHWVRQAPGQGLEWMGWINPDNGNTVYAQKFQGRVTMTADTSTSTVYMELSSLRSEDTAVYYCTRRDYTYEKAALDYWGQGTLVTVSSASTKGPSVFPLAPSSKSTSGGTAALGCLVEDYFPEPVTVSWNSGALTSGVHTFPAVLQSSGLYSLSSVVTVPSSSLGTQTYICNVNHKPSNTKVDEKVEPKSCDKTHTCPPCPAPEAAGGPSVFLFPPKPKDTLMISRTPEVTCVVVDVSHEDPEVKFNWYVDGVEVHNAKTKPREEQYNSTYRVVSVLTVLHQDWLNGKEYKCKVSNKALGAPIEKTISKAKGQPREPQVCTLPPSRDELTKNQVSLSCAVKGFYPSDIAVEWESNGQPENNYKTTPPVLDSDGSFFLVSKLTVDKSRWQQGNVFSCSVMHEALHNHYTQKSLSLSP
light 1: DIQMTQSPSSLSASVGDRVTITCRASGNIYNYLAWYQQKPGKVPKLLIYDAKTLADGVPSRFSGSGSGTDFTLTISSLQPEDVATYYCQHFWSLPFTFGQGTKLEIKRTVAAPSVFIFPPSDRKLKSGTASVVCLLNNFYPREAKVQWKVDNALQSGNSQESVTEQDSKDSTYSLSSTLTLSKADYEKHKVYACEVTHQGLSSPVTKSFNRGEC
light 2: EVQLLESGGGLVQPGGSLRLSCAASGFQFSSYAMNWVRQAPGKGLEWVSRIRSKYNNYATYYADSVKGRFTISRDDSKNTLYLQMNSLRAEDTAVYYCVRHTTFPSSYVSYYGYWGQGTLVTVSSASVAAPSVFIFPPSDEQLKSGTASVVCLLNNFYPREAKVQWKVDNALQSGNSQESVTEQDSKDSTYSLSSTLTLSKADYEKHKVYACEVTHQGLSSPVTKSFNRGEC
Take B3: in test [3], the “EC50 of tumor cell killing at 48 h, PBMC donor 1” value was determined as 0.31 nM; the “EC50 of tumor cell killing at 48 h, PBMC donor 2” value came to 0.03 nM; the “EC50 of tumor cell killing at 48 h, PBMC donor 3” value is 0.08 nM.

B4: EGFRvIII TCB CD3orig (EGFRvIII binder P063.056) (bispecific antibody, human IgG1, kappa, L234A L235A)
heavy 1: not shown
heavy 2: EVQLVQSGAEVKKPGESLKISCKGSGYSFDSYWIAWVRQMPGKGLEWMGVIHPYDSDTRYSPSFQGQVTISADKSISTAYLQWSSLKASDTAMYYCARVSRSSYAFDYWGQGTLVTVSSASTKGPSVFPLAPSSKSTSGGTAALGCLVEDYFPEPVTVSWNSGALTSGVHTFPAVLQSSGLYSLSSVVTVPSSSLGTQTYICNVNHKPSNTKVDEKVEPKSCDKTHTCPPCPAPEAAGGPSVFLFPPKPKDTLMISRTPEVTCVVVDVSHEDPEVKFNWYVDGVEVHNAKTKPREEQYNSTYRVVSVLTVLHQDWLNGKEYKCKVSNKALGAPIEKTISKAKGQPREPQVCTLPPSRDELTKNQVSLSCAVKGFYPSDIAVEWESNGQPENNYKTTPPVLDSDGSFFLVSKLTVDKSRWQQGNVFSCSVMHEALHNHYTQKSLSLSP
light 1: not shown
light 2: B3 light 2 with Q28T, S31T, T102G, T103N, P105G, S106N, Y111W, Y112F, G113A
notes: 2+1 IgG CrossFab, inverted, with charge modifications; also called EGFRvIII TCB P063.056 with CD3orig
Take B4: in test [1], the “EC50 (read off the curve)” value is about 10 nM.

B5: TYRP1 TCB CD3orig (bispecific antibody, human IgG1, kappa, L234A L235A)
heavy 1: not shown
heavy 2: B3 heavy 2
light 1: B3 light 1
light 2: B3 light 2 with Q28T, S31T, T102G, T103N, P105G, S106N, Y111W, Y112F, G113A
Take B5: in test [3], the “EC50 of tumor cell killing at 48 h, PBMC donor 1” value was found to be 0.44 nM; the “EC50 of tumor cell killing at 48 h, PBMC donor 2” value was 0.05 nM; the “EC50 of tumor cell killing at 48 h, PBMC donor 3” value was determined as 0.14 nM.
